Laboratory results as given in patent US20220218805A1 (UNIVERSITY OF BRITISH COLUMBIA, published 2022).
Ends that are not written are not given here.

T1: (4,1) cyclo(CGGGGKLDFG) (SEQ ID NO: 19) conjugated to BSA (not fully specified (residue 1); printed as cyclo(CGGGGKLDFG); also: conjugated to BSA (maleimide coupling))
T1 construct: Screening antigen of the ELISA; also called KLDF (4,1); cyclic peptide-BSA
T1 peptide: cyclo(CGGGGKLDFG)

T2: Linear CGGGGKLDFG (SEQ ID NO: 19) conjugated to BSA (also: conjugated to BSA)
T2 construct: Screening antigen of the ELISA; also called corresponding linear peptide (4,1); linear peptide-BSA
T2 peptide: CGGGGKLDFG

T3: (3,2) cyclo(CGGGKLDFGG) (SEQ ID NO: 16) conjugated to BSA (not fully specified (residue 1); printed as cyclo(CGGGKLDFGG); also: conjugated to BSA (maleimide coupling))
T3 construct: Screening antigen of the ELISA; also called KLDF (3,2); cyclic peptide-BSA
T3 peptide: cyclo(CGGGKLDFGG)

T4: Linear CGGGKLDFGG (SEQ ID NO: 16) conjugated to BSA (also: conjugated to BSA)
T4 construct: Screening antigen of the ELISA; also called corresponding linear peptide (3,2); linear peptide-BSA
T4 peptide: CGGGKLDFGG

T5: (3,1) cyclo(CGGGKLDFG) (SEQ ID NO: 15) conjugated to BSA (not fully specified (residue 1); printed as cyclo(CGGGKLDFG); also: conjugated to BSA (maleimide coupling))
T5 construct: Screening antigen of the ELISA; also called KLDF (3,1); cyclic peptide-BSA
T5 peptide: cyclo(CGGGKLDFG)

T6: Linear CGGGKLDFG (SEQ ID NO: 15) conjugated to BSA (also: conjugated to BSA)
T6 construct: Screening antigen of the ELISA; also called corresponding linear peptide (3,1); linear peptide-BSA
T6 peptide: CGGGKLDFG


How the values were obtained:
[1] = target: T7, tau oligomers (SynAging) (UniProt P10636-8 1-441, limits assumed); experiment: SPR, oligomer RU / monomer RU (reference: tau monomers)
T7 construct: also called misfolded oligomeric tau polypeptide
Experimental: (§1) Antibodies were tested for their ability to bind monomeric tau polypeptide as well as misfolded oligomeric tau polypeptide using surface plasmon resonance. Surface plasmon resonance measurements were performed using a Molecular Affinity Screening System (Sierra Sensors, Hamburg, Germany). Tau monomers (Stressmarq, Victoria, BC, Canada) or tau oligomers (SynAging, Vandoeuvre-les-Nancy, France) were immobilized on high amine capacity sensorchips and hybridoma supernatants (50% dilution) were injected over the immobilized surfaces at 10 μl/minute for 4 min followed by a 5 min dissociation phase. Mouse IgG1 was used as a negative control and a pan-tau reactive antibody was used as a positive control. The reverse orientation was used for purified antibodies: the mAbs were immobilized covalently on the surface of sensorchips (8000-12000 RUs) and serial dilutions of tau monomers or oligomers were injected over the surface.

[2] = target: T1, (4,1) cyclo(CGGGGKLDFG) (SEQ ID NO: 19) …; experiment: indirect ELISA, hybridoma supernatant on cyclic peptide-BSA
Experimental: (§2) Tissue culture supernatants from the hybridomas were tested by indirect ELISA on screening antigen (cyclic peptide-BSA and linear peptide-BSA) and were probed for both IgG and IgM antibodies using a Goat anti-IgG/IgM(H&L)-HRP secondary antibody and developed with TMB substrate.

[3] = target: T8, tau monomers (Stressmarq) (UniProt P10636-8 1-441, limits assumed); experiment: SPR, hybridoma supernatant over immobilized tau monomers
T8 construct: also called monomeric tau polypeptide
Experimental: as §1

[4] = target: T2, Linear CGGGGKLDFG (SEQ ID NO: 19) …; experiment: indirect ELISA, hybridoma supernatant on linear peptide-BSA
Experimental: as §2

[5] = target: T7, tau oligomers (SynAging); experiment: SPR, hybridoma supernatant over immobilized tau oligomers
Experimental: as §1

[6] = target: T3, (3,2) cyclo(CGGGKLDFGG) (SEQ ID NO: 16) …; experiment: indirect ELISA, hybridoma supernatant on cyclic peptide-BSA
Experimental: as §2

[7] = target: T4, Linear CGGGKLDFGG (SEQ ID NO: 16) …; experiment: indirect ELISA, hybridoma supernatant on linear peptide-BSA
Experimental: as §2

[8] = target: T5, (3,1) cyclo(CGGGKLDFG) (SEQ ID NO: 15) …; experiment: indirect ELISA, hybridoma supernatant on cyclic peptide-BSA
Experimental: as §2

[9] = target: T1, (4,1) cyclo(CGGGGKLDFG) (SEQ ID NO: 19) …; experiment: indirect ELISA on other cyclic peptide-BSA conjugates
[10] = target: T3, (3,2) cyclo(CGGGKLDFGG) (SEQ ID NO: 16) …; experiment: as above
[11] = target: T6, Linear CGGGKLDFG (SEQ ID NO: 15) …; experiment: indirect ELISA, hybridoma supernatant on linear peptide-BSA
Experimental: as §2

T7 sequence (P10636 other isoform, or with tags, fused parts or gaps limits assumed): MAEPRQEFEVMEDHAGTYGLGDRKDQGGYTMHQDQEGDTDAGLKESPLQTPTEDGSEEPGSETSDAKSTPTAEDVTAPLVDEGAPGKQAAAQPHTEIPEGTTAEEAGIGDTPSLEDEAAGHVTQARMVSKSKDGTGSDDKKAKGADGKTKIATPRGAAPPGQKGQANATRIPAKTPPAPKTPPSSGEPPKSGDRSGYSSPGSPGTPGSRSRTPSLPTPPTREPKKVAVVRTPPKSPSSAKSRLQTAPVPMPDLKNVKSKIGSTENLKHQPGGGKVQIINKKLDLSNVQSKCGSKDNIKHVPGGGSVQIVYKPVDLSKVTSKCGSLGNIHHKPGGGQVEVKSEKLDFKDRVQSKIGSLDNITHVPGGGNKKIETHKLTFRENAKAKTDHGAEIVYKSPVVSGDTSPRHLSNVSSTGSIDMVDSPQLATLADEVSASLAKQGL
T8 sequence (P10636 other isoform, or with tags, fused parts or gaps limits assumed): as above

Binder | Ratio (O/M) [1] | OD [2] | binding response (RU) [3] | OD [4] | binding response (RU) [5] | OD [6] | OD [7] | OD [8] | binding result [9] | binding result [10] | OD [11]
Ab3 (clone 2C7) (antibody, V domains shown, tested as hybridoma supernatant; kappa light chain) VH: QVTLKESGPGILKPSQTLSLTCSFSGFSLSTSGMGVGWIRQPSGKGLEWLAHIWWDDDKYYNPSLKNRLTISKDTSRNQVFLKITSVDTADTATYYCVRSIYYYDSSPYYYVMDYWGQGTSVTVSS VL: DIVMTQSHKFMSTSVGDRVSITCKASQDVSIAVAWYQQKPGQSPKLLIYSASYRNTGVPDRFTGSGSGTDFTFTISSVQAEDLAVYYCQQHYSSPLTFGAGTKLELK | 1.3 | 1.79 OD | 201 RU | 1.61 OD | 269 RU | – | – | – | – | – | –
Ab11 (clone 9E4) (antibody, V domains shown, kappa light chain; The clone name 9E4 is also printed for Ab27; also called 9E4.1) VH: DVQVQESGPGLVKPSQSLSLTCTVTGYSITSDYAWTWIRQFPGNKLEWMGYISYSGSTSYNPSLKSRLSITRDTSKNQFFLQLNSVTTEDTATYYCAAYYRYGLAYFAYWGQGTLVTVSA VL: not shown | 2.6 | – | 6.5 RU | – | 17 RU | 1.64 OD | 0.232 OD | – | – | – | –
Ab15 (clone 10D9) (antibody, V domains shown, tested as hybridoma supernatant; kappa light chain) VH: QVQLQQSGAELVKPGASVKLSCKASGYTFTSYYMFWVKQRPGQGLEWIGEINPSNGGSNFNEKFKSKATLTVDKSSSTAYMQLSSLTSEDSAVYYCTRGAFWGQGTLVTVSA VL: not shown | 3.7 | – | 3 RU | – | 10.9 RU | 1.58 OD | 0.774 OD | – | – | – | –
Ab21 (clone 2C6) (antibody, V domains shown, tested as hybridoma supernatant; kappa light chain; also called 2C6.1) VH: EVQLQQSGAELVKPGASVKLSCTASGFNIKDTHMHWVKQRPEQGLEWIGKIDPSNGNTQYDPKFQGKATITADTSSNTAYLQLSSLTSEDTAVYYCATGFAYWGQGTLVTVSA VL: DIQMTQSPASLSASVGETVTITCRASGNIHNYLAWYQQKQGKSPQLLVYNAKTLADGVPSRFSGSGSGTQYSLKINSLQPEDFGSYYCQHFWYTPWTFGGGTKLEIK | 1.9 | – | 3.5 RU | – | 6.6 RU | – | – | 1.21 OD | – | – | –
Ab29 (clone 12D11) (antibody, V domains shown, tested as hybridoma supernatant; kappa light chain) VH: QIQLVQSGPELKKPGETVKISCKASGYTFTNYGMNWVKQAPGKGLKWMGWINTYSGEPTYVDDFKGRFAFSLETSASTAYLQINNLKNEDMATYFCARSPGAYYTLDYWGQGTSVTVSS VL: DIVMSQSPSSLAVSAGEKVTMSCKSSQSLLNSRTRKNYLAWYQQKPGQSPKLLIYWASTRESGVPDRFTGSGSGTDFTLTISSVQAEDLAVYYCKQSYNLYTFGGGTKLEIK | 2.1 | – | 3 RU | – | 6.2 RU | – | – | 1.35 OD | no binding | no binding | –
Ab23 (clone 8E11) (antibody, V domains shown, kappa light chain; also called 8E11.1) VH: QVQLQQSGAELVRPGSSVKISCKASGYAFSSYWMNWVKQRPGQGLEWIGQIYPGDGDTNYNGKFKGKATLTADKSSSTAYMQLSSLTSEDSAVYLCASQIYDGYYTFTYWGQGTLVTVSA VL: DIVMSQSPSSLAVSAGEKVTMSCKSSQSLLNSRTRKNYLAWYQQKPGQSPKLLIYWASTRVSGVPDRFTGSGSGTDFTLTISSVQAEDLAVYYCKQSYNLWTFGGGTKLEIK | 2.2 | – | 4.6 RU | – | 10.2 RU | – | – | 1.19 OD | – | – | 1.69 OD
Ab10 (clone 9D12) (antibody, V domains shown, kappa light chain) VH: QIQLVQSGPELKKPGETVKISCKASGYTFTNYGMNWVKQAPGKGLKWMGWINTYTGEPTYTDDFKGRFAFSLETSASTAYLQINNLKNEDTATYFCGRGIRDYYTMDYWGQGTSVTVSS VL: DIVMSQSPSSLAVSAGEKVTMSCKSSQSLLNNRTRKNYLAWYQQKPGQSPKLLIYWASTRESGVPDRFTGSGSGTDFTLTISSVQAEDLAVYYCKQSYNLYTFGGGTKLEIK | 2.7 | – | 5.2 RU | – | 14 RU | 1.6 OD | 0.78 OD | – | – | – | –
Ab12 (clone 10B10) (antibody, V domains shown, tested as hybridoma supernatant; kappa light chain; also called 10B10.1) VH: QIQLVQSGPELKKPGETVKISCKASGYTFTNFGMNWVKQAPGKGLKWMGWINTFTGEPTYVDDFKGRFAFSLETSATTAYLQINNLKNEDTATYFCARSPGRVYTLDYWGQGTSVTVSS VL: DIVMSQSPSSLAVSAGEKVTMSCKSSQSLLNSRTRKNYLAWYQQKPGQSPKLLIYWASTRESGVPDRFTGSGSGTDFTLTISSVQAEDLAVYYCKQSYNLYTFGGGTKLEIK | 2.9 | – | 5 RU | – | 14.5 RU | 1.74 OD | 0.784 OD | – | – | – | –
Ab14 (clone 10D4) (antibody, V domains shown, tested as hybridoma supernatant; kappa light chain) VH: DVQLQESGPGLVKPSQSLSLTCTVTGFSITSDYAWNWIRQFPGNKLEWMGFIRYSGNTRFNPSLKGRGSITRDTSKNQFFLQLNSVTTEDTATYYCASTLEDSYWYFDVWGAGTTVTVSS VL: DVLMTQTPLSLPVSLGDQASISCRSSQSIVHTNGNTYLEWYLQKPGQSPKLLIYKVSNRFSGVPDRFSGSGSGTDFTLKISRVEAEDLGVYYCFQGSHVPLTFGAGTKLELK | 2.6 | – | 6.9 RU | – | 18 RU | 1.7 OD | 0.788 OD | – | – | – | –
Ab13 (clone 10C9) (antibody, V domains shown, tested as hybridoma supernatant; kappa light chain) VH: EVQLQQSGTVLARPGASVKMSCKASGYRFTSYWMYWVKQRPGQGLEWIGAIYPGNSDTIYNQRFKGKATLTAVTSASTAYMELSSLANEDSAVYFCTRPYFDSWGQGTTLTVSS VL: not shown | 3.1 | – | 4.8 RU | – | 14.7 RU | 1.29 OD | – | – | – | – | –
